Measurements reported in the Human Domainome abundance scans (Beltran et al. 2025).
± gives the uncertainty stated by the source.

Experiment: abundance fitness (aPCA) (normalised: wild type 0, dead -1); higher = more abundant; growth selection in yeast, the domain comes from the species named
Conditions: Saccharomyces cerevisiae (strain ATCC 204508 / S288c)

Substance	abundance fitness
E3 ubiquitin-protein ligase RSP5 N353P, P39940	-0.673 ± 0.065
E3 ubiquitin-protein ligase RSP5 N353Q, P39940	-0.212 ± 0.052
E3 ubiquitin-protein ligase RSP5 N353R, P39940	-0.177 ± 0.04
E3 ubiquitin-protein ligase RSP5 N353S, P39940	-0.109 ± 0.061
E3 ubiquitin-protein ligase RSP5 N353T, P39940	-0.113 ± 0.059
E3 ubiquitin-protein ligase RSP5 N353V, P39940	-0.217 ± 0.044
E3 ubiquitin-protein ligase RSP5 N353W, P39940	-0.44 ± 0.061
E3 ubiquitin-protein ligase RSP5 P334A, P39940	-0.61 ± 0.07
E3 ubiquitin-protein ligase RSP5 P334C, P39940	-0.746 ± 0.072
E3 ubiquitin-protein ligase RSP5 P334D, P39940	-0.592 ± 0.091
E3 ubiquitin-protein ligase RSP5 P334E, P39940	-0.689 ± 0.056
E3 ubiquitin-protein ligase RSP5 P334F, P39940	-0.889 ± 0.083
E3 ubiquitin-protein ligase RSP5 P334G, P39940	-0.629 ± 0.044
E3 ubiquitin-protein ligase RSP5 P334H, P39940	-0.658 ± 0.078
E3 ubiquitin-protein ligase RSP5 P334K, P39940	-0.86 ± 0.071
E3 ubiquitin-protein ligase RSP5 P334L, P39940	-0.837 ± 0.072
E3 ubiquitin-protein ligase RSP5 P334M, P39940	-0.702 ± 0.059
E3 ubiquitin-protein ligase RSP5 P334Q, P39940	-0.68 ± 0.056
E3 ubiquitin-protein ligase RSP5 P334R, P39940	-1.03 ± 0.05
E3 ubiquitin-protein ligase RSP5 P334S, P39940	-0.582 ± 0.053
E3 ubiquitin-protein ligase RSP5 P334T, P39940	-0.857 ± 0.069
E3 ubiquitin-protein ligase RSP5 P334V, P39940	-0.966 ± 0.05
E3 ubiquitin-protein ligase RSP5 P334W, P39940	-1.01 ± 0.071
E3 ubiquitin-protein ligase RSP5 P334Y, P39940	-0.627 ± 0.14
E3 ubiquitin-protein ligase RSP5 P343A, P39940	0.013 ± 0.044
E3 ubiquitin-protein ligase RSP5 P343C, P39940	-0.147 ± 0.16

Substance	abundance fitness
E3 ubiquitin-protein ligase RSP5 P343D, P39940	0.099 ± 0.064
E3 ubiquitin-protein ligase RSP5 P343E, P39940	-0.019 ± 0.043
E3 ubiquitin-protein ligase RSP5 P343F, P39940	-0.417 ± 0.49
E3 ubiquitin-protein ligase RSP5 P343G, P39940	-0.018 ± 0.05
E3 ubiquitin-protein ligase RSP5 P343H, P39940	0.09 ± 0.082
E3 ubiquitin-protein ligase RSP5 P343I, P39940	0.017 ± 0.099
E3 ubiquitin-protein ligase RSP5 P343K, P39940	0.102 ± 0.07
E3 ubiquitin-protein ligase RSP5 P343L, P39940	-0.021 ± 0.048
E3 ubiquitin-protein ligase RSP5 P343N, P39940	0.116 ± 0.098
E3 ubiquitin-protein ligase RSP5 P343Q, P39940	-0.041 ± 0.059
E3 ubiquitin-protein ligase RSP5 P343S, P39940	0.07 ± 0.056
E3 ubiquitin-protein ligase RSP5 P343T, P39940	0.014 ± 0.057
E3 ubiquitin-protein ligase RSP5 P343W, P39940	-0.313 ± 0.054
E3 ubiquitin-protein ligase RSP5 P343Y, P39940	-0.402 ± 0.35
E3 ubiquitin-protein ligase RSP5 P362A, P39940	-0.747 ± 0.046
E3 ubiquitin-protein ligase RSP5 P362D, P39940	-0.813 ± 0.097
E3 ubiquitin-protein ligase RSP5 P362E, P39940	-0.723 ± 0.076
E3 ubiquitin-protein ligase RSP5 P362F, P39940	-1.41 ± 0.47
E3 ubiquitin-protein ligase RSP5 P362G, P39940	-0.852 ± 0.044
E3 ubiquitin-protein ligase RSP5 P362H, P39940	-0.905 ± 0.28
E3 ubiquitin-protein ligase RSP5 P362I, P39940	-0.791 ± 0.12
E3 ubiquitin-protein ligase RSP5 P362K, P39940	-1.01 ± 0.1
E3 ubiquitin-protein ligase RSP5 P362L, P39940	-0.993 ± 0.051
E3 ubiquitin-protein ligase RSP5 P362M, P39940	-1.2 ± 0.35
E3 ubiquitin-protein ligase RSP5 P362Q, P39940	-0.709 ± 0.093
E3 ubiquitin-protein ligase RSP5 P362S, P39940	-1.09 ± 0.065

Substance	abundance fitness
E3 ubiquitin-protein ligase RSP5 P362T, P39940	-0.708 ± 0.067
E3 ubiquitin-protein ligase RSP5 P362V, P39940	-0.705 ± 0.048
E3 ubiquitin-protein ligase RSP5 P362W, P39940	-1.21 ± 0.062
E3 ubiquitin-protein ligase RSP5 P362Y, P39940	-1.01 ± 0.18
E3 ubiquitin-protein ligase RSP5 Q339A, P39940	-0.143 ± 0.047
E3 ubiquitin-protein ligase RSP5 Q339C, P39940	-0.092 ± 0.07
E3 ubiquitin-protein ligase RSP5 Q339D, P39940	-0.602 ± 0.09
E3 ubiquitin-protein ligase RSP5 Q339E, P39940	0.006 ± 0.054
E3 ubiquitin-protein ligase RSP5 Q339F, P39940	-0.26 ± 0.074
E3 ubiquitin-protein ligase RSP5 Q339G, P39940	-0.256 ± 0.044
E3 ubiquitin-protein ligase RSP5 Q339H, P39940	-0.134 ± 0.058
E3 ubiquitin-protein ligase RSP5 Q339I, P39940	-0.073 ± 0.069
E3 ubiquitin-protein ligase RSP5 Q339K, P39940	0.026 ± 0.077
E3 ubiquitin-protein ligase RSP5 Q339L, P39940	-0.109 ± 0.051
E3 ubiquitin-protein ligase RSP5 Q339M, P39940	-0.008 ± 0.069
E3 ubiquitin-protein ligase RSP5 Q339P, P39940	-0.297 ± 0.062
E3 ubiquitin-protein ligase RSP5 Q339R, P39940	-0.051 ± 0.043
E3 ubiquitin-protein ligase RSP5 Q339S, P39940	-0.138 ± 0.047
E3 ubiquitin-protein ligase RSP5 Q339T, P39940	-0.11 ± 0.065
E3 ubiquitin-protein ligase RSP5 Q339V, P39940	-0.076 ± 0.045
E3 ubiquitin-protein ligase RSP5 Q339W, P39940	-0.406 ± 0.046
E3 ubiquitin-protein ligase RSP5 Q339Y, P39940	-0.181 ± 0.1
E3 ubiquitin-protein ligase RSP5 Q365A, P39940	0.097 ± 0.044
E3 ubiquitin-protein ligase RSP5 Q365C, P39940	0.077 ± 0.089
E3 ubiquitin-protein ligase RSP5 Q365E, P39940	0.057 ± 0.059
E3 ubiquitin-protein ligase RSP5 Q365F, P39940	-0.034 ± 0.15

Substance	abundance fitness
E3 ubiquitin-protein ligase RSP5 Q365G, P39940	0.052 ± 0.046
E3 ubiquitin-protein ligase RSP5 Q365H, P39940	0.167 ± 0.11
E3 ubiquitin-protein ligase RSP5 Q365K, P39940	0.022 ± 0.064
E3 ubiquitin-protein ligase RSP5 Q365L, P39940	0.033 ± 0.058
E3 ubiquitin-protein ligase RSP5 Q365M, P39940	-0.022 ± 0.17
E3 ubiquitin-protein ligase RSP5 Q365R, P39940	0.014 ± 0.043
E3 ubiquitin-protein ligase RSP5 Q365S, P39940	0.038 ± 0.062
E3 ubiquitin-protein ligase RSP5 Q365V, P39940	-0.014 ± 0.045
E3 ubiquitin-protein ligase RSP5 Q365W, P39940	0.051 ± 0.08
E3 ubiquitin-protein ligase RSP5 Q365Y, P39940	-0.004 ± 0.1
E3 ubiquitin-protein ligase RSP5 Q366A, P39940	0.047 ± 0.13
E3 ubiquitin-protein ligase RSP5 Q366C, P39940	-0.572 ± 0.41
E3 ubiquitin-protein ligase RSP5 Q366G, P39940	0.131 ± 0.064
E3 ubiquitin-protein ligase RSP5 Q366H, P39940	-0.304 ± 0.19
E3 ubiquitin-protein ligase RSP5 Q366L, P39940	0.24 ± 0.11
E3 ubiquitin-protein ligase RSP5 Q366R, P39940	0.117 ± 0.053
E3 ubiquitin-protein ligase RSP5 Q366S, P39940	-0.008 ± 0.077
E3 ubiquitin-protein ligase RSP5 Q366T, P39940	0.054 ± 0.078
E3 ubiquitin-protein ligase RSP5 Q366V, P39940	0.023 ± 0.11
E3 ubiquitin-protein ligase RSP5 Q366W, P39940	-0.001 ± 0.061
E3 ubiquitin-protein ligase RSP5 Q366Y, P39940	0.307 ± 0.21
E3 ubiquitin-protein ligase RSP5 R340A, P39940	0.018 ± 0.047
E3 ubiquitin-protein ligase RSP5 R340C, P39940	0.064 ± 0.059
E3 ubiquitin-protein ligase RSP5 R340D, P39940	-0.256 ± 0.074
E3 ubiquitin-protein ligase RSP5 R340E, P39940	-0.01 ± 0.063
